{"source": "patent US20030186868A1", "about": "(Regeneron, published 2003)", "key": {"[1]": {"target": "T1, human vascular endothelial growth factor receptor-2 (hVEGFR-2) (human, UniProt P35968 20-1356)", "T1 construct": "whole, on cells; also called flk-1; FLK-1", "T1 sequence (P35968 20-1356)": "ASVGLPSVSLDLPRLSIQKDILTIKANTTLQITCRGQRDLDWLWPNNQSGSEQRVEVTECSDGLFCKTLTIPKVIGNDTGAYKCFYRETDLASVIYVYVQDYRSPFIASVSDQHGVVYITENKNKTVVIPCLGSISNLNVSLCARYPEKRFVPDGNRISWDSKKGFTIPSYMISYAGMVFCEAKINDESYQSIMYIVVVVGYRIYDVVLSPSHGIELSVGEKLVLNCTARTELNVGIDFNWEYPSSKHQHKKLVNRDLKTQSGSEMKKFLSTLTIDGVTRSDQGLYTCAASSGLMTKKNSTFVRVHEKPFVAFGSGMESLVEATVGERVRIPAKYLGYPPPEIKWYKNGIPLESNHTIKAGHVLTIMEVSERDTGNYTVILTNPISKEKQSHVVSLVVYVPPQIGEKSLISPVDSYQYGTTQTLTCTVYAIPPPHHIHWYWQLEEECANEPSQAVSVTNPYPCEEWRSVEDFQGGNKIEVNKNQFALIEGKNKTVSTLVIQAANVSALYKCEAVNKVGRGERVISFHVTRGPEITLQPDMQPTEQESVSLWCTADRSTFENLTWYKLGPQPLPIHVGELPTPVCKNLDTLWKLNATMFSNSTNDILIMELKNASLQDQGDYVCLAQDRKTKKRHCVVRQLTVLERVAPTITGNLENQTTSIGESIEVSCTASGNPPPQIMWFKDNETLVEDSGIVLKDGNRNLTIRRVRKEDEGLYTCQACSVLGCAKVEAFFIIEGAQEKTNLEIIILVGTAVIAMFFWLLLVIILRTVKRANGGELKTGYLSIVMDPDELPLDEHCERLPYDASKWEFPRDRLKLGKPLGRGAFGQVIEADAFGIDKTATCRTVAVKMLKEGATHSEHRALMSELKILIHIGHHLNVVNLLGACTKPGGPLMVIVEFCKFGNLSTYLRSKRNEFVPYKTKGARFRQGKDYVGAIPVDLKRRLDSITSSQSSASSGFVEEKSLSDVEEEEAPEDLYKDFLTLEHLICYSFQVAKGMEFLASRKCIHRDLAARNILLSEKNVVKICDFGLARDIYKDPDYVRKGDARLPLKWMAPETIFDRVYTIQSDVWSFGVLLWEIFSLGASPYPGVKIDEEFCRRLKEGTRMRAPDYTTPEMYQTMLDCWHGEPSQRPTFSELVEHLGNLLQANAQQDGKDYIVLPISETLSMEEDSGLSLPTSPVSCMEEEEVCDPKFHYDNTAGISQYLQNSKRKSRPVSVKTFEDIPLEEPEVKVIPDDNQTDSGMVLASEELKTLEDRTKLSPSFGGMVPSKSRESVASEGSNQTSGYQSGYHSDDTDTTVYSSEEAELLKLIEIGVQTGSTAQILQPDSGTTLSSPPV", "assay": "125I-VEGF165 competition, whole COS-1 cells", "method": "Cells are plated the day before experimentation at 200,000 cells per well in twelve well tissue culture plates (VWR) in 1 ml of growth medium specific for each cell type. On the day of experimentation, the cells were pre-equilibrated at 4° C. for 30 to 60 minutes in binding buffer (0.2% BSA, Sigma; 25 mM Hepes, Gibco; MEM, Gibco). […] The binding reaction is allowed to reach equilibrium for four hours at 4° C. with gentle agitation.\nUnbound ligand is then removed by quickly washing three times with 5 ml ice cold BSA-free binding buffer (MEM, Gibco, 25 mM Hepes, Gibco). Cells are lysed by the addition of 250 μl of RIPS Buffer (previously described), and the lysed cells are transferred to 12×75 mm test tubes and counted using a gamma counter. Generation of competition curves and IC₅₀ values are performed using the Prism software package (Graphpad Software Inc., San Diego, Calif.)."}, "[2]": {"target": "T2, VEGFR-2/NP-1 co-receptor complex (cells co-expressing hVEGFR-2 and hNP-1) (human, UniProt P35968 20-1356; O14786 22-923)", "T2 construct": "whole, on cells; All numbers printed for cells co-expressing both receptors are put on this molecule; also called R2 + NP1 Cells; VEGFR-2/NP-1 complex", "T2 sequence (P35968 20-1356, chain 1 of 2)": "as the sequence (P35968 20-1356) above", "T2 sequence (O14786 22-923, chain 2 of 2)": "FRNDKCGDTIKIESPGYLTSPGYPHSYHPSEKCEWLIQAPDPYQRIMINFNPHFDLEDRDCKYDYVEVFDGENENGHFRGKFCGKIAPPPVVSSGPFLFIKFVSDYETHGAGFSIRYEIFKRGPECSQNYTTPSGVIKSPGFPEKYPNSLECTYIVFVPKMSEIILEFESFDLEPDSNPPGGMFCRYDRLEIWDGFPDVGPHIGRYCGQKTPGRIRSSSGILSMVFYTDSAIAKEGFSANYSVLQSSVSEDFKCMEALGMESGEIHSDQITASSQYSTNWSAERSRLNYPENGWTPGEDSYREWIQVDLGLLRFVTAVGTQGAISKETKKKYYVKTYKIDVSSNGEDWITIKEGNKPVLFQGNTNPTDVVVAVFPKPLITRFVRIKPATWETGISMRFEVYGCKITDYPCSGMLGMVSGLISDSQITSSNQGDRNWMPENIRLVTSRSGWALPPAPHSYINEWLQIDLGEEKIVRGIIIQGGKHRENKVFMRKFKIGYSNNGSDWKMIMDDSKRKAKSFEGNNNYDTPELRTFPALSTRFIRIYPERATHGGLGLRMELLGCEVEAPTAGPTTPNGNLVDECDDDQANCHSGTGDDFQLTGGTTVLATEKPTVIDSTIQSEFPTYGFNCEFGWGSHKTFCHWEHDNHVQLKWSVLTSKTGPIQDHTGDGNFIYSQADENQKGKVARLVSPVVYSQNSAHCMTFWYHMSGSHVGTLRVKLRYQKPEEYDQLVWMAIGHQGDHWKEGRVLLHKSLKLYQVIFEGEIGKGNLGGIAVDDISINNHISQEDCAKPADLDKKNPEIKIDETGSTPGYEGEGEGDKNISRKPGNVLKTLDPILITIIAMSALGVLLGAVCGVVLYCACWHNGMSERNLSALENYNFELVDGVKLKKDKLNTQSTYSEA", "assay": "125I-VEGF165 competition on COS-1 cells and affinity labeling of HUVEC"}, "[3]": {"target": "T2, VEGFR-2/NP-1 co-receptor complex (cells …)", "assay": "125I-VEGF165 affinity labeling of HUVEC, VEGFR-2 immunoprecipitation, 100 µM peptide (FIG. 10B)", "method": "(§1) The crosslinker is removed with a single, ice cold, large volume wash (15 ml DPBS, Gibco). The cells are then lysed using RIP buffer (20 mM Tris HCl, pH 7.4; 100 mM NaCl; 1 mM EDTA; 10 mM NaI; 0.5% IGEPAL CA-630; 0.5% Na-deoxycholate; 1% BSA; all from Sigma). The lysate is then transferred to 1.5 ml conical tubes and centrifuged at 13,000×g to pellet the cellular debris. […] The precipitation tube is then incubated overnight at 4° C. on a nurator. The following morning the beads are washed three times in TNEN buffer (20 mM Tris-HCl pH 7.4; 100 mM NaCl; and 0.5% IGEPAL CA-630, all from Sigma), and heated for two minutes at 100° C. in 25 μl of 1×sample loading dye (5′-3′). The samples are then centrifuged to separate the beads from the sample buffer, and 20 μl of the sample buffer is loaded onto 6% SDS-PAGE gels (Novex). The gels are run at 35 mA for approximately 70 minutes, and then equilibrated in a drying buffer (10% acetic acid; 10% methanol, 80% H₂O) for 15 minutes and dried on a gel drier. The dried gels are then exposed to a phosphor screen overnight and developed using a Storm system (Molecular Dynamics).\n(§2) Further amino terminal deletions were conducted."}, "[4]": {"target": "T2, VEGFR-2/NP-1 co-receptor complex (cells …)", "assay": "125I-VEGF165 affinity labeling of HUVEC, VEGFR-2 immunoprecipitation, 100 µM peptide (FIG. 10A)", "method": "as §1, §2"}}}
{"binder": "RREKQRPCDKPRR", "note": "[P6V8-9N]", "values": [{"measurement": "binding result", "setting": "[1]", "result": "no binding"}, {"measurement": "binding result", "setting": "[2]", "result": "binds"}]}
{"binder": "KGRGKRRREKQRPSDKPR", "note": "[P6V8-3NCS-1C]", "values": [{"measurement": "binding result", "setting": "[3]", "result": "binds"}]}
{"binder": "RRREKQRPCDKPRR (also called PGV8-8N)", "note": "[P6V8-8N]", "values": [{"measurement": "binding result", "setting": "[4]", "result": "binds"}]}
